Source: PMC12630831

Biological target: T1, PRDX1 (peroxiredoxin 1), endogenous in TM3 cells (mouse (endogenous in TM3)), P35700
T1 chain: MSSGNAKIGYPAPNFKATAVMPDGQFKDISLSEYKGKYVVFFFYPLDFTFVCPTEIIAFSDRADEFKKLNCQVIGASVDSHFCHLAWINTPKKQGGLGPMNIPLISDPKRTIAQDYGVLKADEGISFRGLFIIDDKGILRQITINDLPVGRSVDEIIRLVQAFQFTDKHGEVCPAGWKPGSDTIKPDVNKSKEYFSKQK
Experiment: SDS-PAGE under DTT-free conditions with western blot
Conditions: remark: other sources report otherwise

B1: PRDX1 (peroxiredoxin 1), endogenous in TM3 cells, P35700 1-199 (enzyme)
chain: T1 chain
  stoichiometry N: 2
